Assay: soluble fraction after stress (log2 fold change); higher = more stays soluble; pooled small domains, quantitative proteomics
Conditions: stress: 75 degC
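Further: 20 min heating vs room temperature control held 20 min.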

Row | Sequence | soluble fraction (log2)
1 | HMQEIKPEPISDGRVWKEGMWATTPLGIEGQLLSDPDEKGMVQLGYGNMRININIQDLDPSR | -0.104
2 | HMRRGFGYVRKLPSGRWQASFVGPDLARHSAPHTFETKGDAEGWLGRRQADVVAGEWRPPVP | -0.00612
3 | HMRDGHEQLQGVLSAIKFHQANFLIGVLDDGTTVKGNMLSPQVGLEYTFRGRRERHPRWGEQFAFMDYRV | -3.31
4 | HMGGAVQIAEQIAARIKDGALRPGELLPPVRQLAAELEVNPNTVASAYARLRDAGLVATRGRAGTVVLEPP | -0.421
5 | HMKININEASRYELMTIGGLDAGRADMLMQYRQKREISSADELKGINGFASYDTAKLQKSFEISP | -0.0573
6 | HMDIKDRSGVTIDESNEAQQESIIRESWAEQKISGNVDNYIAYLKANGMLLETAKIELAALQEKDASLRE | 0.774
7 | HMDSGINVWASAEGLTITADKDTTVYVYDIYGRTIHTSEVKAGTSDIAINTKGIVIVKANGYTKKII | -1.77
8 | HMLPDHAPITMRQLAMLHVAKNKLDLTDEDYRSLLLLYGGVESSKQLNQEGLRRVLDRFKELGFEP | -0.45
9 | HMNVGKYILTLAAKEGYSQSDVARRTGISRQMLSYIIAGERKLTLPQALKIESLLSLKTGTLILMQDED | -3.35
10 | HMESEIYKKIEKSRLLELAFTKSQKGDLTGAYDLYYQAFTKYDVIADNQNRYFEDFISLIRRKQQQD | -2.54
11 | HMRLSDSEFESIENAIKEKLENSALTADVLVKELSFDEDKIWKVIRWLEDAEKISEDEAGTLLWKPR | -0.0971
12 | HMRKDEFLQTLRRALNGNVPPRVVEENVRYYDGYISDEVRKGRSEEEVIEEIGDPRLIARTIEDTT | 0.105
13 | HMYMTTADADMWKYVNTGRYNNDIQLMEEYKNRSMDSFEVITPEQQRKYNKAAMNLNSYYAWADPSYKPNP | -0.483
14 | HMSEDTYNTLTKGTRVYNGVDYGAKYGYNPLYYFLNYNDLRIAYGADPAKLVEHYALFGIKENRVANRQIT | -1.33
15 | HMQDKLLRKKEVLEMVSITNSTMYRMIGSGQFPRPIRLDNANINSGVRWKLSEINTFIEQRF | -0.513
16 | HMGNHMSFKMWGEQLQEAFRALETYDTQKAKTILNELVRFPIDSDITKALKGIISNIDDMMA | -0.881
17 | HMRQKTTFFATESFELPNGEKVEEGQIFRLNDGAFNIAEQQGITRFLTSEANYGRMIAANAEVEKAKLDA | 0.605
18 | HMLEASVYTAEKSGDRLDAFLAEQAGITRSYAQKLIEGGQVTLGGVVPKKNYKLSAGEQVELILPEN | 0.0466
19 | HMRPDSFEAGEAEAGSRLDRLLAARLGIPRNQVQQWIGGGRVTVDAEPVRASLVVRAGMRIAWDPPPPP | -1.56
20 | HMKTLLSMNIKNLRKKKNMTLEELAEKVGTSKQTIQRYESGKISNIPSDKIELLAKYLDTTPAKLMGW | -0.139
21 | HMVELRDGSLPLARGSVGDLVAEVQRKLGVAADGIFGPQTERAVRAFQARAGLASDGIVGPLTWSALFGA | -0.516
22 | HMLGITEGSLVRVIRSPNFGKIGTVAELPAELRMMESETMVRIAIVEIEGTNFEIPRSNLEVLET | -1.6
23 | HMAVFRVGDKVKSMEGMIGEVRGINGRLIQVATPYGLRDYYPHQITKVENPLAAAPAPLNEEA | 0.767
24 | HMTTARERVYKTLQQWIVNGTLLPEERLNDVELARYFSVSRTPVREALQMLAEQKLVKMVPSSGTFVA | -1.44
25 | HMAEGPYSGKKVEKYPGGMEKRETMYSEGKLTRVTEFHQSGQKKMEVKVDANGQWKRLYWDNNGNPT | -0.0401
26 | HMQLSMLPYGFARRHGVLLVEQDEQPTLIHRAGITATVIAEVQRVAGQIDAWRLVDDARFDQQLAEVYRD | -1.33
27 | HMASIGTATVTADNLRLRSEAGTGAETLTMAPKGAEVTVEEDAGDGWYKVTYGDTEGYMSGEWLKITLA | -0.0355
28 | HMYSQEEKRYMEIMEIKPQELSAENLKKQYKKLVKKYHPDLHQDDKQAAEEKFKQLTNAYQVLMRRF | -0.474

Row | Sequence | soluble fraction (log2)
29 | HMASLIGEEKALQIALEHAGVALENVAYSQVKLENDDGRWEYDTEFYSGSKEYDYEIDASTGEILGYDHD | 0.0872
30 | HMNTYEIIGGDNRARGPVTGEELSQWIREGRASGHTMARVSDGEHWQPLGSFPEFVGPLQGLPW | 0.0698
31 | HMDFSENEPVTVRVLSILKNNTIRIAVKGAVLQAQTALSQDIREGAFLLMRVHITDNTVVLTPY | 0.112
32 | HMTLDEFTDLMNLFKTGHIEQKPVILYGYNYWTSLKSWFEFNNMKFPEMYIDGIINTVDEFKILYNKIF | -1.38
33 | HMESAQLIINVAGKVSNPGVYQLPQGSRVVDAIEAAGKQLKGVDISDINLARVLVDGEQILVGGV | 0.363
34 | HMDEYTAVDSRLDLELAMKRLKPEEAEVLRLVFDYGLPQRAIAERLGVSQMSVSRMQRRAIGKLKRWLSDN | -1.43
35 | HMDDGNHTEYIVLEKAKFYDEAGEYEEGRDLVLSFDKYQDNWKLVYTLGVFNKKLNNLEEARKYYKQALE | -0.0263
36 | HMNPNEVQIPDLVNKTEEEAEQILKDLKLKLVVKSEEYDENIEKGKIISQDPTYKENYKIKEHSEISVIIS | 0.586
37 | HMGLNEGLNEGQQKVIQHIQENEGIKVKEISLKLNMPIDTVDRHIRVLKNLNLIERRGSRKTGGYFISN | -0.461
38 | HMQISDEGELSGIVRKIIDANPQSVADYKAGKKKAIGFLVGQIMIETKGRANPASVNELLIKKLE | -0.434
39 | HMDDFNLSPREKDVLGHLVKGNSYKMIADELQIGYDTVHSHIKKIYKKLHVNSMSEAVAKALKNKL | 0.332
40 | HMPTTNIRAFRLREADPESVKEALSMVMPKTSIYVDARTKSVLVVGLLDELARAAEIVALIDQP | -2.8
41 | HMSYDAINGYEPSDLRGSLTLEQTASMLNLPLTDVYARLGLPANYPSGATLKDGAADMGMGLSDFKHQLF | -0.121
42 | HMVDPWLEQVHRASAAYATAHGSARIPTTHPDLGWKVVRVRQRHRKGLLSDEWVAKFEALPGWTWEPK | -1.52
43 | HMRHTRQRQAVLDALVRSGQALSPQDLLGQAKSAVPSLNLSTVYRQIKGLQDAGQIVRVELPGQPPRFEM | -0.0693
44 | HMEFNDLNDDEKAILHIMYNTGEKMTTALAARITNRGRNFASKLLKSLVKKEILEWHGTSKQDRNQYYTLA | -0.0971
45 | HMKMDGESQRLLSLIKEQGGSLPIGDKSSPEAIYRLTQMSKKTFKMALGSLYKAKQVVLSPTEVRL | -1.45
46 | HMLPPHMEVRAIMILDKRPMALMNIEGEGDGLIVSPGYRFGDGRGRVVSITQTKVVVLWAGTSMEL | -2.82
47 | HMNMVEESVKKSSQWAVFEPNTISTWVKIQAMIENYLYQKWKEGALAGAKPEHAFFVKVGLGETM | 0.258
48 | HMEAVLTISPGMYSESVSAELVRLGIITNQKEFNSYLVNNGYAERIQTGDFKIKADMSYDEIARIITK | -0.563
49 | HMGMTNRIKELRKAKGYRQEDLAAALGVSRQTIIAVENNKYNPTLELAMKLARHLQTTVEELFQL | -2.01
50 | HMDDVGERIRKIREEKNLSLDEISKMTGFDVEFLAKIENKERQPQLGTVIKLSKALDSAFGRL | 0.162
51 | HMRTYDPQAVELNNKALELINQGRLDSALLVYDQSIKTDKTYYFPHIGKSIIYMRKKDWNKAFEETQQAIK | 0.493
52 | HMPGLQSVTPAELKIGMYVILPLAWDEHPFLKNHFLIQSEAQINKIRELGTKGIQIDLSKSHP | -1.9
53 | HMPLNAFDVAGYRLGYGGGYFDRTLAALSPRPLAVGVGFEINRLESIRPEAHDQRLDWIVTENGAFRPA | -1.58
54 | HMDYPFQYFNYSHLRILGVPAQLIKAVRKAPTLDAIEQLSGLSEKTKLWLLELATEPKLEDVLFDPGR | -1.98
55 | HMRMSQLSRLISILTLLKSKRLLTATELAEKYDVSIRTVYRDIRKLEEAGIPVYTIEGRGYSLMDNYT | -1.42

— the domain aggregation screens of Martell et al. (2025)
